This passage reports stoichiometry N results from article PMC10017804.

For the experiment, the target named is photosystem II (PSII) complex of Porphyridium purpureum (P. purpureum (endogenous in P. purpureum cells)). Description: cryo-EM structure; in situ, single cryo-EM images (no tilt series) of FIB-milled P. purpureum cellular lamellae; particles localized by GisSPA, then 3D classification and local refinement.

Usually stoichiometry N stands for the number of molecules, sites or subunits per partner or assembly.

Regarding “photosystem II (PSII) complex of Porphyridium purpureum”, the stoichiometry N came to 4.
